Kd data for one molecule are collected here from US8415393B2, “Anti-bacterial drug targeting of genome maintenance interfaces” (Wisconsin Alumni Research Foundation, priority 2007, dated 2013).

Common to all, as to assay: fluorescence anisotropy equilibrium binding (Kd,app), ExoI variant titrated into fluorescein-labeled peptide
In one experiment the target is T1, ExoI Arg316Ala variant (Escherichia coli, UniProt P04995 1-475).
T1 construct: residue flanks peptide A; also called R316A; Arg316 variant
T1 sequence: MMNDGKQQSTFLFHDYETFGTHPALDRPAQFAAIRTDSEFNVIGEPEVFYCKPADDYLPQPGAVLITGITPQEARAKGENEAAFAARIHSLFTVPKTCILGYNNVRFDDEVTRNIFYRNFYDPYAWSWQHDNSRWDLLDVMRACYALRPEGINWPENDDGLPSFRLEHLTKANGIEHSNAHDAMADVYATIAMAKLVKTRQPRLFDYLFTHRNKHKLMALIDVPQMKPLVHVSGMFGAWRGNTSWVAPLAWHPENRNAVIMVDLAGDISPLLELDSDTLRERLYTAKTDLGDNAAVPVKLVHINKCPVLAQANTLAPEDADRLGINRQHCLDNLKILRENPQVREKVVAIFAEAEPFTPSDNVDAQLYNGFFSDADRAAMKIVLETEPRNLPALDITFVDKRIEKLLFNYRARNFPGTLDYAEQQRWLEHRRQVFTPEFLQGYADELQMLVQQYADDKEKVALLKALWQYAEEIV

The next experiment has as its target T2, ExoI Arg148Ala variant (Escherichia coli, UniProt P04995 1-475).
T2 construct: also called R148A; Arg148 variant
T2 sequence: T1 sequence with R148A, A316R

A further experiment addresses T3, ExoI Asp319Ala variant (Escherichia coli, UniProt P04995 1-475).
T3 construct: also called D319A; Asp319 variant
T3 sequence: T1 sequence with A316R, D319A

For a further experiment, the target named is T4, ExoI Glu150Ala variant (Escherichia coli, UniProt P04995 1-475).
T4 construct: also called E150A; Glu150 variant
T4 sequence: T1 sequence with E150A, A316R

Numbering of substitutions follows the chain as printed. Where no end group is shown, it is not given here. fluorescein = fluorescein moiety attached to the N-terminus of the peptide (N-terminal fluorescein label) Bounds are passed on as bounds.

B1: fluorescein-labeled SSB C-terminal peptide (fluorescein-WMDFDDDIPF) (peptide)
peptide: fluorescein-WMDFDDDIPF
notes: also called F-SSB-Ct; F-WT
For B1, the Kd is over 1000 nM with ExoI Arg316Ala variant, over 1000 nM with ExoI Arg148Ala variant, 299 nM in the experiment with ExoI Asp319Ala variant and 72 nM in the experiment with ExoI Glu150Ala variant.
